Earlier results, collected in publication PMC2726620 (Journal of medicinal chemistry, 2008).
Non-standard residues stand in square brackets, D forms with d. Residues, ends and D or L forms follow the SMILES beside them. No end group written: not given here. *: point of attachment. Fmoc = O=C(OCC1c2ccccc2-c2ccccc21)*; NMePhg = CN[C@H](C(=O)O)c1ccccc1; Cha = N[C@@H](CC1CCCCC1)C(=O)O

Columns and labels:
mR1 dimer = conditions: read-out: Ki for mR1 dimer; from directed minilibrary screening studies
[1] = target: EcR2 octapeptide C-terminal octapeptide (Escherichia coli) (UniProt P69924)
[2] = target: EcR2 20-mer peptide C-terminal 20-mer (Escherichia coli) (UniProt P69924)
ScRR = target: T1, ScRR (Saccharomyces cerevisiae, UniProt P21524); conditions: read-out: IC50, ScRR; footnote *: IC50 values were reported in [30]
T1 sequence (P21524 1-888): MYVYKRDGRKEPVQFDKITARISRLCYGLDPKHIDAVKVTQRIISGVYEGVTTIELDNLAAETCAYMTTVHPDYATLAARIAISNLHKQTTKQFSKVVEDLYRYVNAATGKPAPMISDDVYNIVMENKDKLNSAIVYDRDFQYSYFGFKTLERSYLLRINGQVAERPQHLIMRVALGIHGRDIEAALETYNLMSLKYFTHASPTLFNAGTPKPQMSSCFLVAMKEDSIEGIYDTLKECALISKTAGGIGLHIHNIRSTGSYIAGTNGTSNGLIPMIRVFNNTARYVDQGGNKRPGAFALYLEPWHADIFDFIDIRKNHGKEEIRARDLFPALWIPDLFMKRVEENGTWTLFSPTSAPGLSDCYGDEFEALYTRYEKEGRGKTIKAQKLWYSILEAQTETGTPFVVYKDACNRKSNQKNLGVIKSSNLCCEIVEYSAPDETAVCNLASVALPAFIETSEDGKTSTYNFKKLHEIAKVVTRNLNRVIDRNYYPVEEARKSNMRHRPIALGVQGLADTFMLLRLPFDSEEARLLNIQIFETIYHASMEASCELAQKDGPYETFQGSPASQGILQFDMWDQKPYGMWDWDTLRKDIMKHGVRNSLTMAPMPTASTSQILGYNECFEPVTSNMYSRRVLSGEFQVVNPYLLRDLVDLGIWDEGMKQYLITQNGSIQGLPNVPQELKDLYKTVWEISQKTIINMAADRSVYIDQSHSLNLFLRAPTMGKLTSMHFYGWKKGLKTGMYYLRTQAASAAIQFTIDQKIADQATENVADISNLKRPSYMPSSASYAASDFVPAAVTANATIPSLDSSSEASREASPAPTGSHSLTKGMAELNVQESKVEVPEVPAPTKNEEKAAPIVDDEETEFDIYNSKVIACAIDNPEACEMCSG

Sequence of EcR2 octapeptide C-terminal octapeptide (Escherichia coli) (P69924 whole entry, looked up): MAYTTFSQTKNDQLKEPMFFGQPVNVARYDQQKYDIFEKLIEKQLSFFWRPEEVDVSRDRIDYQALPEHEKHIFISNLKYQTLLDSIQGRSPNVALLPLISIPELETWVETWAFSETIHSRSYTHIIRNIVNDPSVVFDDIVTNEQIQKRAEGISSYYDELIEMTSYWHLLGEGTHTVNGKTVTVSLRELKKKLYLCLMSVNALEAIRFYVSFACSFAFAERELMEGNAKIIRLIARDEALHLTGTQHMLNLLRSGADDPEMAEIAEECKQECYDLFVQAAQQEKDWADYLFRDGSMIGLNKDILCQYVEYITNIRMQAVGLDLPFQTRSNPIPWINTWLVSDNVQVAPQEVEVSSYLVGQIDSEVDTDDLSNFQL
Sequence of EcR2 20-mer peptide C-terminal 20-mer (Escherichia coli) (P69924 357-376): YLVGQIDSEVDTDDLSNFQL

CC(C)C[C@H](NC(=O)[C@H](c1ccccc1)N(C)C(=O)OCC1c2ccccc2-c2ccccc21)C(=O)N[C@@H](CC(=O)O)C(=O)N[C@@H](CC1CCCCC1)C(=O)N[C@@H](CC(=O)O)C(=O)N[C@@H](Cc1ccccc1)C(=O)O [P6, ^1Fmoc(Me)PhgLDChaDF^7] (Fmoc-[NMePhg]LD[Cha]DF-OH; C-terminus assumed)
Ki (mR1 dimer): 0.31 µM

ribonucleotide reductase R1 (EcR1) (from UniProt P00452)
Ki [1]: 370 µM | Ki [2]: 20 µM

^1FTFNEDF^7 (not fully specified; printed as 1FTFNEDF7) [ScR2]
IC50 (ScRR): 44 µM

^2NFDDDF^7 (not fully specified; printed as 2NFDDDF7) [ScR4]
IC50 (ScRR): 30 µM
